B1: ATXN2 peptide 913-928 (Ataxin-2), 16-mer library wild type / PABPC1 PABC (PABPC1 PABC domain, residues 544-623) (parent complex)
chain 1: TLNPNAKEFNPRSFSQ
chain 2: PLTASMLASAPPQEQKQMLGERLFPLIQAMHPTLAGKITGMLLEIDNSELLHMLESPESLRSKVDEAVAVLQAHQAKEAA
B2: CBL peptide 540-555 (E3 ubiquitin-protein ligase CBL), 16-mer library wild type / YES SH3 (YES1 SH3 domain, residues 90-152) (parent complex)
chain 1: RDLPPPPPPDRPYSVG
chain 2: not shown

Variants of: B1
Experiment: proteomic peptide phage display deep mutational scan (ProP-PD DMS): M13 P8 16-mer library selected against immobilised GST-tagged bait for four days (rounds), NGS of the eluted pools per day and pseudo-replica; bait immobilised on MaxiSorp plates (10 µg), library pre-cleared on GST, 2 h binding at 4 °C, five washes; one round per day, days 1-4; value from days 2 and 3

Variant	screen value
chain 1 P11F	0.00198 average fractional NGS count over selection days 2 and 3 (reads of this peptide / all reads for the bait, averaged over …

Variants of: B2
Experiment: as above

Variant	screen value
chain 1 P7L	0.00235 average fractional NGS count over selection days 2 and 3 (reads of this peptide / all reads for the bait, averaged over …
chain 1 P7D	0.00038 average fractional NGS count over selection days 2 and 3 (reads of this peptide / all reads for the bait, averaged over …
chain 1 P7V	0.00515 average fractional NGS count over selection days 2 and 3 (reads of this peptide / all reads for the bait, averaged over …
chain 1 V15R	7.8e-05 average fractional NGS count over selection days 2 and 3 (reads of this peptide / all reads for the bait, averaged over …
chain 1 V15F	0.00636 average fractional NGS count over selection days 2 and 3 (reads of this peptide / all reads for the bait, averaged over …
chain 1 V15P	0.00539 average fractional NGS count over selection days 2 and 3 (reads of this peptide / all reads for the bait, averaged over …
chain 1 V15Y	0.00192 average fractional NGS count over selection days 2 and 3 (reads of this peptide / all reads for the bait, averaged over …
chain 1 P4F	9.76e-05 average fractional NGS count over selection days 2 and 3 (reads of this peptide / all reads for the bait, averaged over …
chain 1 P4V	0.000427 average fractional NGS count over selection days 2 and 3 (reads of this peptide / all reads for the bait, averaged over …
chain 1 P4A	0.000327 average fractional NGS count over selection days 2 and 3 (reads of this peptide / all reads for the bait, averaged over …
chain 1 P8T	0.0233 average fractional NGS count over selection days 2 and 3 (reads of this peptide / all reads for the bait, averaged over …
chain 1 P8G	0.000141 average fractional NGS count over selection days 2 and 3 (reads of this peptide / all reads for the bait, averaged over …
chain 1 P8D	0.000795 average fractional NGS count over selection days 2 and 3 (reads of this peptide / all reads for the bait, averaged over …
chain 1 P9F	0.000295 average fractional NGS count over selection days 2 and 3 (reads of this peptide / all reads for the bait, averaged over …
chain 1 P9I	0.000523 average fractional NGS count over selection days 2 and 3 (reads of this peptide / all reads for the bait, averaged over …
chain 1 P9V	0.00298 average fractional NGS count over selection days 2 and 3 (reads of this peptide / all reads for the bait, averaged over …
chain 1 P9K	0.00297 average fractional NGS count over selection days 2 and 3 (reads of this peptide / all reads for the bait, averaged over …
chain 1 P9T	0.000876 average fractional NGS count over selection days 2 and 3 (reads of this peptide / all reads for the bait, averaged over …
chain 1 P9G	0.00146 average fractional NGS count over selection days 2 and 3 (reads of this peptide / all reads for the bait, averaged over …
chain 1 P9E	0.000429 average fractional NGS count over selection days 2 and 3 (reads of this peptide / all reads for the bait, averaged over …
chain 1 R1I	0.00103 average fractional NGS count over selection days 2 and 3 (reads of this peptide / all reads for the bait, averaged over …
chain 1 R1V	0.000334 average fractional NGS count over selection days 2 and 3 (reads of this peptide / all reads for the bait, averaged over …
chain 1 P6L	0.000189 average fractional NGS count over selection days 2 and 3 (reads of this peptide / all reads for the bait, averaged over …
chain 1 P6K	0.00059 average fractional NGS count over selection days 2 and 3 (reads of this peptide / all reads for the bait, averaged over …
chain 1 P6R	0.00111 average fractional NGS count over selection days 2 and 3 (reads of this peptide / all reads for the bait, averaged over …

Variant	screen value
chain 1 S14L	0.0182 average fractional NGS count over selection days 2 and 3 (reads of this peptide / all reads for the bait, averaged over …
chain 1 S14Q	0.000166 average fractional NGS count over selection days 2 and 3 (reads of this peptide / all reads for the bait, averaged over …
chain 1 S14P	0.00266 average fractional NGS count over selection days 2 and 3 (reads of this peptide / all reads for the bait, averaged over …
chain 1 S14G	0.00254 average fractional NGS count over selection days 2 and 3 (reads of this peptide / all reads for the bait, averaged over …
chain 1 S14V	7.3e-05 average fractional NGS count over selection days 2 and 3 (reads of this peptide / all reads for the bait, averaged over …
chain 1 S14E	0.0212 average fractional NGS count over selection days 2 and 3 (reads of this peptide / all reads for the bait, averaged over …
chain 1 L3G	7.18e-05 average fractional NGS count over selection days 2 and 3 (reads of this peptide / all reads for the bait, averaged over …
chain 1 L3V	0.00179 average fractional NGS count over selection days 2 and 3 (reads of this peptide / all reads for the bait, averaged over …
chain 1 L3N	7.55e-05 average fractional NGS count over selection days 2 and 3 (reads of this peptide / all reads for the bait, averaged over …
chain 1 L3I	0.00353 average fractional NGS count over selection days 2 and 3 (reads of this peptide / all reads for the bait, averaged over …
chain 1 P5D	0.00109 average fractional NGS count over selection days 2 and 3 (reads of this peptide / all reads for the bait, averaged over …
chain 1 P5N	0.00347 average fractional NGS count over selection days 2 and 3 (reads of this peptide / all reads for the bait, averaged over …
chain 1 P5G	0.00951 average fractional NGS count over selection days 2 and 3 (reads of this peptide / all reads for the bait, averaged over …
chain 1 P5V	0.0116 average fractional NGS count over selection days 2 and 3 (reads of this peptide / all reads for the bait, averaged over …
chain 1 D2V	0.00212 average fractional NGS count over selection days 2 and 3 (reads of this peptide / all reads for the bait, averaged over …
chain 1 D2G	0.00344 average fractional NGS count over selection days 2 and 3 (reads of this peptide / all reads for the bait, averaged over …
chain 1 D2S	0.00111 average fractional NGS count over selection days 2 and 3 (reads of this peptide / all reads for the bait, averaged over …
chain 1 D2Y	0.00341 average fractional NGS count over selection days 2 and 3 (reads of this peptide / all reads for the bait, averaged over …
chain 1 D2N	0.00453 average fractional NGS count over selection days 2 and 3 (reads of this peptide / all reads for the bait, averaged over …
chain 1 D2F	0.000357 average fractional NGS count over selection days 2 and 3 (reads of this peptide / all reads for the bait, averaged over …
chain 1 D2P	0.00891 average fractional NGS count over selection days 2 and 3 (reads of this peptide / all reads for the bait, averaged over …
chain 1 D2R	0.000105 average fractional NGS count over selection days 2 and 3 (reads of this peptide / all reads for the bait, averaged over …
chain 1 D2K	0.000177 average fractional NGS count over selection days 2 and 3 (reads of this peptide / all reads for the bait, averaged over …
chain 1 D2A	0.00577 average fractional NGS count over selection days 2 and 3 (reads of this peptide / all reads for the bait, averaged over …
chain 1 D2M	0.0201 average fractional NGS count over selection days 2 and 3 (reads of this peptide / all reads for the bait, averaged over …

Variant	screen value
chain 1 D10G	0.00202 average fractional NGS count over selection days 2 and 3 (reads of this peptide / all reads for the bait, averaged over …
chain 1 D10L	0.00104 average fractional NGS count over selection days 2 and 3 (reads of this peptide / all reads for the bait, averaged over …
chain 1 D10T	0.00033 average fractional NGS count over selection days 2 and 3 (reads of this peptide / all reads for the bait, averaged over …
chain 1 D10Y	0.000449 average fractional NGS count over selection days 2 and 3 (reads of this peptide / all reads for the bait, averaged over …
chain 1 D10S	0.000232 average fractional NGS count over selection days 2 and 3 (reads of this peptide / all reads for the bait, averaged over …
chain 1 D10Q	0.000233 average fractional NGS count over selection days 2 and 3 (reads of this peptide / all reads for the bait, averaged over …
chain 1 P12N	0.000558 average fractional NGS count over selection days 2 and 3 (reads of this peptide / all reads for the bait, averaged over …
chain 1 P12S	0.00406 average fractional NGS count over selection days 2 and 3 (reads of this peptide / all reads for the bait, averaged over …
chain 1 P12D	0.00117 average fractional NGS count over selection days 2 and 3 (reads of this peptide / all reads for the bait, averaged over …
chain 1 P12V	0.002 average fractional NGS count over selection days 2 and 3 (reads of this peptide / all reads for the bait, averaged over …
chain 1 P12M	0.0175 average fractional NGS count over selection days 2 and 3 (reads of this peptide / all reads for the bait, averaged over …
chain 1 P12W	0.00363 average fractional NGS count over selection days 2 and 3 (reads of this peptide / all reads for the bait, averaged over …
chain 1 P12L	0.0025 average fractional NGS count over selection days 2 and 3 (reads of this peptide / all reads for the bait, averaged over …
chain 1 P12G	0.000184 average fractional NGS count over selection days 2 and 3 (reads of this peptide / all reads for the bait, averaged over …
chain 1 P12K	0.00165 average fractional NGS count over selection days 2 and 3 (reads of this peptide / all reads for the bait, averaged over …
chain 1 Y13S	0.00123 average fractional NGS count over selection days 2 and 3 (reads of this peptide / all reads for the bait, averaged over …
chain 1 Y13N	0.00025 average fractional NGS count over selection days 2 and 3 (reads of this peptide / all reads for the bait, averaged over …
chain 1 Y13H	0.000183 average fractional NGS count over selection days 2 and 3 (reads of this peptide / all reads for the bait, averaged over …
chain 1 Y13K	0.000696 average fractional NGS count over selection days 2 and 3 (reads of this peptide / all reads for the bait, averaged over …
chain 1 Y13Q	0.00091 average fractional NGS count over selection days 2 and 3 (reads of this peptide / all reads for the bait, averaged over …
chain 1 R11I	0.000246 average fractional NGS count over selection days 2 and 3 (reads of this peptide / all reads for the bait, averaged over …
chain 1 R11Q	0.00199 average fractional NGS count over selection days 2 and 3 (reads of this peptide / all reads for the bait, averaged over …
chain 1 R11Y	0.000176 average fractional NGS count over selection days 2 and 3 (reads of this peptide / all reads for the bait, averaged over …
chain 1 R11E	0.000556 average fractional NGS count over selection days 2 and 3 (reads of this peptide / all reads for the bait, averaged over …
